This is an account of results in patent US20240092872A1 (VIR BIOTECHNOLOGY, published 2024).

In assay [1] the target is T1, Human complement component C1q (human, UniProt P02745 23-245; P02746 28-253; P02747 29-245).
T1 construct: mature; also called purified human C1q
Nature of the assay: BLI (Octet RED96); IgG captured through the Fab on anti-human Fab (CH1) sensors. Background: BLI is a label-free optical method that tracks binding on a fibre tip over time.
Description: IgG-loaded sensors were then exposed for 4 minutes to a solution of kinetics buffer (pH 7.1) containing 3 μg/ml of purified human C1q (left part of the plot), followed by a dissociation step in the same buffer for 4 additional minutes (right part of the plot). Association and dissociation profiles were measured in real time as change in the interference pattern using an Octet RED96 (FortéBio).

The target in assay [2] is T2, Recombinant human FcγRIIIa (V158) (human, UniProt P08637 17-208).
T2 construct: also called FcγRIIIa allele V158; His-tagged human FcγRIIIa V158
T2 sequence (P08637 other isoform, or with tags, fused parts or gaps limits assumed): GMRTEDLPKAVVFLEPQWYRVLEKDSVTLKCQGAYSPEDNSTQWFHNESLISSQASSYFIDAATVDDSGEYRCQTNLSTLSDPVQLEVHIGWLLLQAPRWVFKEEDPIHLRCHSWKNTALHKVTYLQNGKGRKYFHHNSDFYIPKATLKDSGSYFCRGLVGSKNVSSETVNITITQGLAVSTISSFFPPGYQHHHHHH
Nature of the assay: BLI (Octet RED96); His-tagged FcγR on anti-penta-His sensors, 2 µg/ml mAb cross-linked with anti-human F(ab')2.
Description: (§1) Briefly, His-tagged human FcγRs (FcγRIIa allele H131, FcγRIIa allele R131, FcγRIIAa allele F158, FcγRIIIa allele V158 and FcγRIIb) at 2 μg/ml were captured onto anti-penta-His sensors for 6 minutes. FcγR-loaded sensors were then exposed for 4 minutes to a solution of kinetics buffer (pH 7.1) containing 2 μg/ml of each mAb in the presence 1 μg/ml of affiniPure F(ab′)₂ Fragment Goat Anti-Human IgG, F(ab′)₂ fragment-specific (to cross-link human mAbs through the Fab fragment), followed by a dissociation step in the same buffer for 4 additional minutes (right part of the plot). Association and dissociation profiles were measured in real time as change in the interference pattern using an Octet RED96 (FortéBio).

The target in assay [3] is T3, His-tagged human FcγRIIa allele R131 (human, UniProt P12318 34-218).
T3 construct: also called FcγRIIa R131
T3 sequence (looked up): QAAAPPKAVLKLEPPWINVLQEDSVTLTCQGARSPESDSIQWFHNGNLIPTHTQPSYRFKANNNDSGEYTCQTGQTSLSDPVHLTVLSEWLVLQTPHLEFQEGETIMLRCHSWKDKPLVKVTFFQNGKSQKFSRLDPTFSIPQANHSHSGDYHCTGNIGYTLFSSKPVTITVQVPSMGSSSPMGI
Described as above.
Description: as §1

Assay [4] deals with T4, Recombinant human FcγRIIIa (F158) (human, UniProt P08637 17-208).
T4 construct: also called FcγRIIIa allele F158; His-tagged human FcγRIIIa F158
T4 sequence (P08637 other isoform, or with tags, fused parts or gaps limits assumed): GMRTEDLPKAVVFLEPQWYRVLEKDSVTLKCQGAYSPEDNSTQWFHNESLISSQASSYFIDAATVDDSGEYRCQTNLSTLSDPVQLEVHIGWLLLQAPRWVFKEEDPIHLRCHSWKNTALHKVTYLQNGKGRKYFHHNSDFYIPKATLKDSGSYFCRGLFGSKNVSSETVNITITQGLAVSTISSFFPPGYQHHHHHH
The description is as above.
Description: as §1

In assay [5] the target is T5, Recombinant human FcγRIIa (H131) (human, UniProt P12318 34-218).
T5 construct: also called FcγRIIa allele H131; His-tagged human FcγRIIa H131
T5 sequence: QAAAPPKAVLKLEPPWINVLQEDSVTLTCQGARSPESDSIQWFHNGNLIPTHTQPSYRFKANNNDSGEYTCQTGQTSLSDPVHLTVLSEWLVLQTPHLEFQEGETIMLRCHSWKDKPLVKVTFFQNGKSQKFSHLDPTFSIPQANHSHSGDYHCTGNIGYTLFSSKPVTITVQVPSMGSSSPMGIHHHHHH
The description is as above.
Description: as §1

T1 sequence (P02745 23-245, chain 1 of 3): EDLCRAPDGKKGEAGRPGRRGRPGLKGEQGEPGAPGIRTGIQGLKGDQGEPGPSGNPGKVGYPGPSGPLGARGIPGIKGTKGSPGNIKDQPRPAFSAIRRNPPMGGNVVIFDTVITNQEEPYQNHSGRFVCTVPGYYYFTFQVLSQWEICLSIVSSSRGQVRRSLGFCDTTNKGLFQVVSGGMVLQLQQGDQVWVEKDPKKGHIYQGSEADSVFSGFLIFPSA
T1 sequence (P02746 28-253, chain 2 of 3): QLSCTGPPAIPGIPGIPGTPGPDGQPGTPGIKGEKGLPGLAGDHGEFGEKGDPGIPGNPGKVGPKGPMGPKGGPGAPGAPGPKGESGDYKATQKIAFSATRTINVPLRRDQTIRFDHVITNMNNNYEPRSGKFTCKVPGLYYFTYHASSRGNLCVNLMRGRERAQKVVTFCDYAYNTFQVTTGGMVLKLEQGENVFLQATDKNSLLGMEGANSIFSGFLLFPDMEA
T1 sequence (P02747 29-245, chain 3 of 3): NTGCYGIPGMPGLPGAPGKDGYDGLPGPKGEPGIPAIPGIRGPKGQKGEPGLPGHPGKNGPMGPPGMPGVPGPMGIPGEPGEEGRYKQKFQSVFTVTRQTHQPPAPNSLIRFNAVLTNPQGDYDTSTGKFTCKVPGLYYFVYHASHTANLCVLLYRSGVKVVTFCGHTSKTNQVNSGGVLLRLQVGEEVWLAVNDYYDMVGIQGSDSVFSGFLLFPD

B1: HBC34-V35-MLNS-GAALIE (antibody, human IgG1, lambda)
heavy: ELQLVESGGGWVQPGGSQRLSCAASGRIFRSFYMSWVRQAPGKGLEWVATINQDGSEKLYVDSVKGRFTISRDNAKNSLFLQMNNLRVEDTAVYYCAAWSGNSGGMDVWGQGTTVSVSSASTKGPSVFPLAPSSKSTSGGTAALGCLVKDYFPEPVTVSWNSGALTSGVHTFPAVLQSSGLYSLSSVVTVPSSSLGTQTYICNVNHKPSNTKVDKKVEPKSCDKTHTCPPCPAPELLAGPSVFLFPPKPKDTLMISRTPEVTCVVVDVSHEDPEVKFNWYVDGVEVHNAKTKPREEQYNSTYRVVSVLTVLHQDWLNGKEYKCKVSNKALPLPEEKTISKAKGQPREPQVYTLPPSRDELTKNQVSLTCLVKGFYPSDIAVEWESNGQPENNYKTTPPVLDSDGSFFLYSKLTVDKSRWQQGNVFSCSVLHEALHSHYTQKSLSLSPGK
light: SYELTQPPSVSVSPGQTVSIPCSGDKLGNKNVAWFQHKPGQSPVLVIYEVKYRPSGIPERFSGSNSGNTATLTISGTQAMDEAAYFCQTFDSTTVVFGGGTRLTVLGQPKAAPSVTLFPPSSEELQANKATLVCLISDFYPGAVTVAWKADSSPVKAGVETTTPSKQSNNKYAASSYLSLTPEQWKSHRSYSCQVTHEGSTVEKTVAPTECS
As to B1, the binding result in assay [1] is listed as “no binding (tested: 3 µg/ml of purified human C1q)”; in assay [2], “binds”; in assay [3], “binds”; in assay [4], “binds”; in assay [5], “binds”.
